A short description of this data set: yeast display, Sf9 membrane polyspecificity reagent, FACS + sequencing; frameworks hold sequencing errors. In outline: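 Genes from sorted yeast were amplified by colony PCR, read by MiSeq 2 × 250 sequencing and filtered on CDR length. These cells carried a synthetic nanobody library in Saccharomyces cerevisiae BJ5465 and were sorted by FACS into low and high (top ~1%) gates on anti-HA and streptavidin fluorescence. Polyreactivity is labelled according to the gate of origin.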
Consider “QVQLVESGGGLVQAGGSLRLSCAASGRLFKSYAMGWYRQAPGKEREFVAAISTRSSSTYYADSVKGLFTISRDNAKNTVYLQMNSLKPEDTAVYYCAATPRRVSPYGVPYGDVYWGQGTQVTVSS”, for which the “polyreactivity (PSR sort gate)” value is on record as “low polyreactivity”.

Regarding “QVQLVESGGGIVQAGGSLRLSCAASGSTLQYNAMGWYRQAPGKERELVAAITRISGSTYYADSVKGRFTISRDNAKNTVYLQMNSLKPEHTAVYYCAAVSYYYSGYDYWGQGTEVTVSS”, the “polyreactivity (PSR sort gate)” value is “high polyreactivity”.

As for “QVQLVESGGGLVQAGGSLRLSCAASGYTIRYYAMGSYRQAPGKERELVADISYSGGRTYYADSVKGRITISRDNAKNTVDLLMNSLKPEDSAVYYSNARGGRRAYNYGYWGQGTQVTVSS”, the “polyreactivity (PSR sort gate)” value was “high polyreactivity”.

For “QVQLVESGGGLVQAGGSLRLSCAASGSIFFLYAMGWYRQAPGKERELVASISRGDSTNYADSVKGRFTISRDNAKNTVYLQMNSLKPEDTAVYYCAAYRLYWPSTARRYDYWGQGTQVTVSS”, the “polyreactivity (PSR sort gate)” value is on record as “low polyreactivity”.

For “QLQLVESGGGLVQAGGSLRLSCAASGSIFGDNAMGWYRQAPGKERELVAAISSSGGSTYADSVKGRFTISRDNAKNTVYLQMNSLKPEDTAVYYCATQIAWGTYVINPQMDYWGQGTQVTVSS”, the “polyreactivity (PSR sort gate)” value is given as “low polyreactivity”.

Regarding “QVQLVESGGGLFQEGGSLRLSCAASGSIFSYYAMGWYRQAPGKERELVAAISTYGGRTYYADSVKGRFTISRDNAKNTVYLQMNSLKPEDTAVYYCAGPVRWKNYDYWGQGTPVTVSS”, the “polyreactivity (PSR sort gate)” value is on record as “high polyreactivity”.

As to “QVQLVESGGGLVQAGGSLRLSCAASGRIFSPNAMGWYRQAHVKERELVADITFGDGSTYYADSVKGRFTISRDNAKNTVYLQMNSLIPEDTAVYYCAAELYYLYALYIYYPFYYWGQGTQVTVSS”, the “polyreactivity (PSR sort gate)” value was “high polyreactivity”.

For “QVQLVESGGGLVQAGGSLRLSCAASGRTFYPYAMGWYRQAPGKERELVATITWSGTTTYYADSVKGRFTISRDNAKNTVYLQMNSLKPEDTAVYYCAADVWEVVTPYGTIDDDYWGQGTQVTVSS”, the “polyreactivity (PSR sort gate)” value is reported as “high polyreactivity”.

“QVQLVESGGGLVQAGGSLRLSSAASGSIFWYYAMGWYRQAPGKERELVADITIRGGRTYYADSVKGRFTISRDNAKNTVYFQMNSLKPEDTAVFYCAADWEYWGFGLYDYWGQGTQVTVSS”: the “polyreactivity (PSR sort gate)” value is on record as “low polyreactivity”.

For the sequence “QVQLVETGGGLDQAGGSLRLSCAASGFTLHRNAKGWYRQAPRKERELVATNSWTGGSTYYADSVKGRFTISRDTAKNTVYLQMNSLKPEDTAVYYCAARGHWSIYGYYYLGATAFGYWGQGTQVTVSS”, the “polyreactivity (PSR sort gate)” value is “low polyreactivity”.

For “QVQLVESGGGLVQAGGSLRLSCAASGNIFTYNTMGWYRQAPRKERELVAAISSGGSTYYADSVKGRFTISRDNAKNTVYLQMNSLKPEDTAVYYCNRRRWLWQTARGDYWGQGTQVTVSS”, the “polyreactivity (PSR sort gate)” value was “high polyreactivity”.

In the case of “QVQLVESGGGLVQAGGSLRLSCAASGFIFYRYAMGWSRQAPGKERELVAAISWGGGSTTYYADSVKGRFTISRDNAKNTVYLQMNSLKPEDTAVYYCAAYIGKGYGSEYYYWGQGTQVTVSS”, the “polyreactivity (PSR sort gate)” value is “low polyreactivity”.

For the sequence “QVQLVETGGGLVQAGGTLRLSCAASGRTFSRNAMGCDRPAPGKERELVAAITSGGGTYYADSVKGRFTISRDNAKNTVYLQMNSLKPEDTAVYYCNKKTSAGRVDYWGQGTQVTVSS”, the “polyreactivity (PSR sort gate)” value is “high polyreactivity”.

On to “QVQLVESGGGLVQAGGSLRLSCAASGRTFYSYSMGWYRQEPGQERELVALITWSGGTYYADSVKGRFTISRDNANNTVYLLMNSLKPEDTAVYYCNKYRPYGRIFHRAYGRDYWGQGTQVTVSS”, for which the “polyreactivity (PSR sort gate)” value is reported as “high polyreactivity”.

“QVQLVESGGGLVQAGGSLRLSCSASGSIFAYYAMGWYRQAPGKERELVAAISKSAGSTYYADSVKGRFTISRDNAKNTVYLQMNSLKPEDTAVYYCAAVVLGRRLGFRGDYNYWGQGTQVTVSS”: the “polyreactivity (PSR sort gate)” value is reported as “high polyreactivity”.

For the sequence “QVQLVESGVGLVQAGGSLRLSCAASGSILSGYAMGWYRQAPGKERELVAAINDGGGTNYADSVKGRFTISRDNAKNTVYLQMNSLKPEDTAVYYCNKVYYFQRRLTPVYLMDYWGQGTQVTVSS”, the “polyreactivity (PSR sort gate)” value is on record as “low polyreactivity”.
